Seven molecules from patent US12077763B2, “RNA-based control of powdery mildew” (Greenlight Biosciences, Inc., priority 2021, dated 2024) can be followed below.

This data set has as its system E. necator. As to the kind of experiment: Leaf disc assay, dry inoculum (settling tower), decrease in disease severity / hyphal growth (Example 2). Conditions: decrease in disease severity (hyphal growth) relative to untreated control, value ± SE; for % decrease =/− SE TP1: time point 1 (untreated control hyphal growth ≥50%); for % decrease =/− SE TP2: time point 2.

B1: GS3360 (nucleic acid)
sense: CAGUGCUCUCGCAGCAGGCCAUUUAGUCAAGAGCCAUAUGGCACAUAACAGAAGUGCUCCUAUUACAAGAAGUAAUACACCUGCUCAGAUUAGCACACACCCAUCAAUGAUAUCAACAAAUAGCAUGAGAGAAAAAUAUUGAGAUUUGAAAUUCUAAUUGUGUAAAUGAGCUCAGCUAUAUUGAAAAUAAAUUGGUAAUCUAAUAUAGAGGUAGAACUAGUUCGAUUUUUAUACUCAUUAAAAAAAGGAACUAAUAUUGGUAAAGGGUUAAGCUAUGAAAUUAGCUAUCCUUUUUUUUCCUAUUUAUUGAAAA
antisense: UUUUCAAUAAAUAGGAAAAAAAAGGAUAGCUAAUUUCAUAGCUUAACCCUUUACCAAUAUUAGUUCCUUUUUUUAAUGAGUAUAAAAAUCGAACUAGUUCUACCUCUAUAUUAGAUUACCAAUUUAUUUUCAAUAUAGCUGAGCUCAUUUACACAAUUAGAAUUUCAAAUCUCAAUAUUUUUCUCUCAUGCUAUUUGUUGAUAUCAUUGAUGGGUGUGUGCUAAUCUGAGCAGGUGUAUUACUUCUUGUAAUAGGAGCACUUCUGUUAUGUGCCAUAUGGCUCUUGACUAAAUGGCCUGCUGCGAGAGCACUG
For the molecule B1, the “% decrease =/− SE TP1” value amounted to 36 ± 4% and the “% decrease =/− SE TP2” value was found to be 30 ± 5%.

B2: GS3352 (nucleic acid)
sense: UGUAGAGGUGAAGUAGGUGAAAGUUGAUUUGGCGAUGGUAGAGAUGAGUUACUAUUACUGAUAGAAGGUAAAUUUGAGUAAGAUUGCAAAUUUCUAUCAGACGCAGCUGACUGAUCAAGAGUUUGCUCUAAUAAGGAUCUUUCAUGAGCUGAAUGCGCAUAUGUCGGUGACAAAUUUUUGGGAUGAUCGAUAAAGAAUUUUUUGGUUGAAUAGUUGCGAGAGAUUCCAGGUUGUAUUGCAGGUGAUGAAGAAGCUGGUGAAGAAAUGUUGCUUGAGUUGUCAAAAUUGCUACUGUUUGAACCAUUUGUUUUUGCGGAAGGAUACGGGAGUGGUUUACCUUCUUUUGCCAUCCGAAAAACUGGAAGUAAAUCCUCUCUAAGUCGUGUAUAUUCGAAUGU
antisense: ACAUUCGAAUAUACACGACUUAGAGAGGAUUUACUUCCAGUUUUUCGGAUGGCAAAAGAAGGUAAACCACUCCCGUAUCCUUCCGCAAAAACAAAUGGUUCAAACAGUAGCAAUUUUGACAACUCAAGCAACAUUUCUUCACCAGCUUCUUCAUCACCUGCAAUACAACCUGGAAUCUCUCGCAACUAUUCAACCAAAAAAUUCUUUAUCGAUCAUCCCAAAAAUUUGUCACCGACAUAUGCGCAUUCAGCUCAUGAAAGAUCCUUAUUAGAGCAAACUCUUGAUCAGUCAGCUGCGUCUGAUAGAAAUUUGCAAUCUUACUCAAAUUUACCUUCUAUCAGUAAUAGUAACUCAUCUCUACCAUCGCCAAAUCAACUUUCACCUACUUCACCUCUACA
Consider B2, for which the “% decrease =/− SE TP1” value was found to be 6 ± 4%.

B3: GS3358 (nucleic acid)
sense: UUGGUACUAUGGCCAGGGUCAAUUCAAUUCAAUUUUUUUCUAUCAAAUAAAAUUAAAUCAAAAUAGUUUUCAAUCCAAUCUAACCCAAUCUUAAUCUUAAAAUGUAACUUCAAACAUUGUGAUUCAAGUACUAAUCACACGAGAAACUAGCAACGUUUGAUCUCGCUUUUCGAUCUACUUUAGGUACUUGAUGAAAUUUUCAAAGAUAUUUUGUCAUAAAACCAGUCACUAAGCUUCUUUGCUAUAUAAUUGCACUACGCGACGUCAACAGAUGCUCUUUUCACACUCCUAGUUAUUAAAGCAAUUGAAACAUCUUCUAACUAUAUACAACUUGAAUAUAACUCCAGAUUUGAAUAUAUUCUCCACCAAAAUUUAAUUAGGUUUGCAAUAAAUU
antisense: AAUUUAUUGCAAACCUAAUUAAAUUUUGGUGGAGAAUAUAUUCAAAUCUGGAGUUAUAUUCAAGUUGUAUAUAGUUAGAAGAUGUUUCAAUUGCUUUAAUAACUAGGAGUGUGAAAAGAGCAUCUGUUGACGUCGCGUAGUGCAAUUAUAUAGCAAAGAAGCUUAGUGACUGGUUUUAUGACAAAAUAUCUUUGAAAAUUUCAUCAAGUACCUAAAGUAGAUCGAAAAGCGAGAUCAAACGUUGCUAGUUUCUCGUGUGAUUAGUACUUGAAUCACAAUGUUUGAAGUUACAUUUUAAGAUUAAGAUUGGGUUAGAUUGGAUUGAAAACUAUUUUGAUUUAAUUUUAUUUGAUAGAAAAAAAUUGAAUUGAAUUGACCCUGGCCAUAGUACCAA
On to B3, for which the “% decrease =/− SE TP1” value came out at 6 ± 4%.

B4: GS3357 (nucleic acid)
sense: GAUCUGGUCGUGGUUUGCCGAAAAGAUUCUUCAUUCCUCCCGUUAUAAGAACGGUGAGUGAUAGUGAAAAGCUUAAUCCAAGCAAUCCAACGUGUAAUUCCCACAUUCUCCGAUGCCAUAUGGCAGAUCUAGGCGUUGACUUUGUAACCGUCGGUCCAGGAACAAGAACUAAGCAAAUAGCAAAAAUAACUAAUGCCGGAAUUAUAAAAGCAUAUAAUCCAAGCCAUCGUACCGAGACUUUUUCAUGUGUUUUAUAGGGAAAGCUGAUAUCUGGGUUCUCCAGCGAGAAGGGUCUUUUGUUUGGUACCCUCGAUCCAACAAAUAAUCCAAAAAAUGCACCAAAUAUAACUACCAGCCAAUCGACAACAUAUGAAAGUACUAGUUUUAAUGA
antisense: UCAUUAAAACUAGUACUUUCAUAUGUUGUCGAUUGGCUGGUAGUUAUAUUUGGUGCAUUUUUUGGAUUAUUUGUUGGAUCGAGGGUACCAAACAAAAGACCCUUCUCGCUGGAGAACCCAGAUAUCAGCUUUCCCUAUAAAACACAUGAAAAAGUCUCGGUACGAUGGCUUGGAUUAUAUGCUUUUAUAAUUCCGGCAUUAGUUAUUUUUGCUAUUUGCUUAGUUCUUGUUCCUGGACCGACGGUUACAAAGUCAACGCCUAGAUCUGCCAUAUGGCAUCGGAGAAUGUGGGAAUUACACGUUGGAUUGCUUGGAUUAAGCUUUUCACUAUCACUCACCGUUCUUAUAACGGGAGGAAUGAAGAAUCUUUUCGGCAAACCACGACCAGAUC
Turning to B4, the “% decrease =/− SE TP1” value was determined as 9 ± 6% and the “% decrease =/− SE TP2” value stood at 7 ± 6%.

B5: GS3356 (nucleic acid)
sense: CUGGGUGAGUUUUUCGUAACGUCGCUACUUUAUUAACUUGAUCUGCCGUGGAUUUUGGUUGUCUUGUAUCAAUCAAAAGGAGAGGAAGCUUCGGAAACUUCAUUAAAGAUCUUAUGAUUGGCUCCUUUGAAUAGUCGGGCCUCUGAAAUAUAACAGCUUUUCCUUGGGAGGCAACAGUGUUAUCUACUCCUGAAGGGUUUCCAUGGAUACAUAUUUCUCCUACAUAAGCCCACAUAUUAAUGCGGCUUAUUUGGGUAUGUGCUUCUUCAAUGGGUUGGUCCUCAUGAGGCCCAGAAAGCGCUCUUACCUGUAAUAAGAGCGCAGCAGCUAGACACACAGUAAUAGAUGCA
antisense: UGCAUCUAUUACUGUGUGUCUAGCUGCUGCGCUCUUAUUACAGGUAAGAGCGCUUUCUGGGCCUCAUGAGGACCAACCCAUUGAAGAAGCACAUACCCAAAUAAGCCGCAUUAAUAUGUGGGCUUAUGUAGGAGAAAUAUGUAUCCAUGGAAACCCUUCAGGAGUAGAUAACACUGUUGCCUCCCAAGGAAAAGCUGUUAUAUUUCAGAGGCCCGACUAUUCAAAGGAGCCAAUCAUAAGAUCUUUAAUGAAGUUUCCGAAGCUUCCUCUCCUUUUGAUUGAUACAAGACAACCAAAAUCCACGGCAGAUCAAGUUAAUAAAGUAGCGACGUUACGAAAAACUCACCCAG
Take B5: the “% decrease =/− SE TP1” value is given as 5 ± 5%.

B6: GS1799: dsRNA trigger SEQ ID NO 193; gene target Transposon Tf2-6 polyprotein (nucleic acid)
DNA: GTAGCGAGGATGGACACTGGAGAACGGTTCGAAGTATACTTGACAAATTACGAAAAGCTGGGCTATATCTCGATATTGATAAATGTGAGTTTTTATGTAAAGAAGTCAAATATTTGGGGTTTATTGTGAAAGCTGGTAAAAGTGTGGCCGTTGATCAATCGAAGGTGAAGGCCATTCTGGAGTGGGAAGCGCCAACTACGGTTAGAGGGGTAAGATCATTTCTCGGATTCGCCAACTTCTATCGGTGCTTTATTAAGGGATTTTCCGACATTACATCACCCCTAGTTGCCCTGACGAAAAAAAAGGTGGAATGGCGATGGGGGCGTGACGAAAATGATGCGTTTGAAAGGCTCAAAGAAATATTCTCATCACAGCCTGTTTTAGCACAGTGGGATCCAGAGAAGGAAACAATTTTGGAAGCTGATAGTTCTGGCTTTGCAATTGGTGGTTGTCTCTCACAGGTGGATGAACACGGCCAAATAAGACCTGTGGCTTATTTCTCGAAGAAGTTAAATAGTGCCGAAGCTAATTACCCAATCCATGACAAAGAATTACACGCAATAGTCACGTGCTTAAAAGAATGGAAACCAGAGCTAAT
In the case of B6, the “% decrease =/− SE TP1” value amounted to 16 ± 5% and the “% decrease =/− SE TP2” value came out at 8 ± 6%.

B7: GS3359 (nucleic acid)
sense: UUGAGAACAUGACCGAGGCUACUCUAAUCUUAGAUAUGUUUCUCAACAACGAGGGAGCCUUUAACUAUCCUCACAUUUCCUUUCGCAAAAAUUUCCACCCUUUCAACUUCUCUAAAAACAAUUGAUUUGCUUAGACCAUAAGAAUAUUUCAAUAUGAUUAAAACUGAAGCUAAUGGUGAAGGAUUUGAUAUUUCUAUUCCAGAGGUAUCAGUAACUGAGGAACGAAAGCCAUUUGUGCAAAAGGAAGGAUAUCUCAAAUUAAAGCAAGCAGGAACUGCAAGAGCGAAUGAAGCCGCUUCAUACGAAGCUCCACGUGGCACUGUAAAAGGAGAUUACGCAUACCGUCAUCGACAUCAGACAGUACUCCAACAGCAUAUAGCCUUUUUUGAUCAUGAUAA
antisense: UUAUCAUGAUCAAAAAAGGCUAUAUGCUGUUGGAGUACUGUCUGAUGUCGAUGACGGUAUGCGUAAUCUCCUUUUACAGUGCCACGUGGAGCUUCGUAUGAAGCGGCUUCAUUCGCUCUUGCAGUUCCUGCUUGCUUUAAUUUGAGAUAUCCUUCCUUUUGCACAAAUGGCUUUCGUUCCUCAGUUACUGAUACCUCUGGAAUAGAAAUAUCAAAUCCUUCACCAUUAGCUUCAGUUUUAAUCAUAUUGAAAUAUUCUUAUGGUCUAAGCAAAUCAAUUGUUUUUAGAGAAGUUGAAAGGGUGGAAAUUUUUGCGAAAGGAAAUGUGAGGAUAGUUAAAGGCUCCCUCGUUGUUGAGAAACAUAUCUAAGAUUAGAGUAGCCUCGGUCAUGUUCUCAA
B7: the “% decrease =/− SE TP1” value was 14 ± 4%.
